These are literature values, as cited in publication PMC8239185.

For data set [1], the target named is Glu286 (UniProt position 286, FFGHPEVYIIV). Briefly: kinetics. Particulars: enzyme during turnover.
Data set [2] deals with Glu212 (UniProt position 213, RTPDHEDTFFR). Particulars: ground state of the reaction centre (quinones oxidised).

On to “Cytochrome c oxidase (aa3, A-type), subunit I (Rhodobacter sphaeroides (Cereibacter sphaeroides))”, for which, in data set [1], the pKa entry is on record as “≈10”. “Photosynthetic reaction centre (bRC), L subunit (Rhodobacter sphaeroides (Cereibacter sphaeroides))”: the pKa result in data set [2] is reported as “≈10”.
